B1: CPEB3 Ribozyme (parent)
chain: GGGGGCCACAGCAGAAGCGUUCACGUCGCGGCCCCUGUCAGAUUCUGGUGAAUCUGCGAAUUCUGCUGU

Variants of: B1
Assay: self-cleavage, relative activity (ratio to wild type); higher = more cleavage; co-transcriptional

Variant | self-cleavage
GGGGGCCACAGCAGAAGCGUUCACGUCGCGGCCCCUGUCAGGUGCUGGUGAAUCUGCGAAUUCUGCUGU [A42G U44G] | 0.904
GGGGGCCACAGCAGAAGCGUUCACGUCGCGGCCCCUGUCAGUUUCGGGUGAAUCUGCGAAUUCUGCUGU [A42U U46G] | 1.01
GGGGGCCACAGCAGAAGCGUUCACGUCGCGGCCCCUGUCAGUUUCAGGUGAAUCUGCGAAUUCUGCUGU [A42U U46A] | 1.03
GGGGGCCACAGCAGAAGCGUUCACGUCGCGGCCCCUGUCAGGUUCUGGUGAAUCUGCGAAAUCUGCUGU [A42G U61A] | 0.693
GGGGGCCACAGCAGAAGCGUUCACGUCGCGGCCCCUGUCAGGUUCUGGUGAAUCUGCGAACUCUGCUGU [A42G U61C] | 0.521
GGGGGCCACAGCAGAAGCGUUCACGUCGCGGCCCCUGUCAGAAUCUGGUGCAUCUGCGAAUUCUGCUGU [U43A A51C] | 0.933
GGGGGCCACAGCAGAAGCGUUCACGUCGCGGCCCCUGUCAGUUUCUGUUGAAUCUGCGAAUUCUGCUGU [A42U G48U] | 0.99
GGGGGCCACAGCAGAAGCGUUCACGUCGCGGCCCCUGUCAGAAUCUGGUGACUCUGCGAAUUCUGCUGU [U43A A52C] | 0.991
GGGGGCCACAGCAGAAGCGUUCACGUCGCGGCCCCUGUCAGAAUCUGGUGAGUCUGCGAAUUCUGCUGU [U43A A52G] | 1
GGGGGCCACAGCAGAAGCGUUCACGUCGCGGCCCCUGUCAGUUUCUGGUGAAUCUGAGAAUUCUGCUGU [A42U C57A] | 0.379
GGGGGCCACAGCAGAAGCGUUCACGUCGCGGCCCCUGUCAGUUUCUGGUGAAUCUGGGAAUUCUGCUGU [A42U C57G] | 0.298
GGGGGCCACAGCAGAAGCGUUCACGUCGCGGCCCCUGUCAGGUUCUGGUGAAUCUGCGAAUUCUGCUGA [A42G U69A] | 1.01
GGGGGCCACAGCAGAAGCGUUCACGUCGCGGCCCCUGUCAGUUUCUGGUGAAUCUGCGAAUUAUGCUGU [A42U C63A] | 0.608
GGGGGCCACAGCAGAAGCGUUCACGUCGCGGCCCCUGUCAGUUUCUGGUGAAUCUGCGAAUUGUGCUGU [A42U C63G] | 0.533
GGGGGCCACAGCAGAAGCGUUCACGUCGCGGCCCCUGUCAGACUCUGGUGAGUCUGCGAAUUCUGCUGU [U43C A52G] | 0.965
GGGGGCCACAGCAGAAGCGUUCACGUCGCGGCCCCUGUCAGUUUCUGGUGAAUCUGCGAAUUCUGCCGU [A42U U67C] | 0.947
GGGGGCCACAGCAGAAGCGUUCACGUCGCGGCCCCUGUCAGAAUCUGCUGAAUCUGCGAAUUCUGCUGU [U43A G48C] | 0.912
GGGGGCCACAGCAGAAGCGUUCACGUCGCGGCCCCUGUCAGGUUCUGGUGAAUCUGCGAAUUCUGCUAU [A42G G68A] | 0.98
GGGGGCCACAGCAGAAGCGUUCACGUCGCGGCCCCUGUCAGGUUCUGGUGAAUCUGCGAAUUCUGCUUU [A42G G68U] | 1.01
GGGGGCCACAGCAGAAGCGUUCACGUCGCGGCCCCUGUCAGGUUCUGGUGAAUCUGCGAAUUCUGCUCU [A42G G68C] | 0.963
GGGGGCCACAGCAGAAGCGUUCACGUCGCGGCCCCUGUCAGAAUGUGGUGAAUCUGCGAAUUCUGCUGU [U43A C45G] | 0.868
GGGGGCCACAGCAGAAGCGUUCACGUCGCGGCCCCUGUCAGGUUCUGGUGAACCUGCGAAUUCUGCUGU [A42G U53C] | 0.891
GGGGGCCACAGCAGAAGCGUUCACGUCGCGGCCCCUGUCAGUCUCUGGUGAAUCUGCGAAUUCUGCUGU [A42U U43C] | 0.77
GGGGGCCACAGCAGAAGCGUUCACGUCGCGGCCCCUGUCAGUGUCUGGUGAAUCUGCGAAUUCUGCUGU [A42U U43G] | 0.735
GGGGGCCACAGCAGAAGCGUUCACGUCGCGGCCCCUGUCAGUUUCUGGUGAACCUGCGAAUUCUGCUGU [A42U U53C] | 0.935
GGGGGCCACAGCAGAAGCGUUCACGUCGCGGCCCCUGUCAGUUUCUGGUGAAUUUGCGAAUUCUGCUGU [A42U C54U] | 0.81

Variant | self-cleavage
GGGGGCCACAGCAGAAGCGUUCACGUCGCGGCCCCUGUCAGUUUCUGGUGAAUCUGCGAAUUCUGGUGU [A42U C66G] | 0.682
GGGGGCCACAGCAGAAGCGUUCACGUCGCGGCCCCUGUCAGAAUCUGGUGAAUCUGCGAAUUCUGCUAU [U43A G68A] | 0.933
GGGGGCCACAGCAGAAGCGUUCACGUCGCGGCCCCUGUCAGGUUCUGGUGAAUCUGCGAAUUCCGCUGU [A42G U64C] | 0.678
GGGGGCCACAGCAGAAGCGUUCACGUCGCGGCCCCUGUCAGGUUCUGGUGAAUCUGCGAAUUCGGCUGU [A42G U64G] | 0.693
GGGGGCCACAGCAGAAGCGUUCACGUCGCGGCCCCUGUCAGGUUCUGGUGAAUCUGCGAAUUCAGCUGU [A42G U64A] | 0.602
GGGGGCCACAGCAGAAGCGUUCACGUCGCGGCCCCUGUCAGUUUCUGGUGGAUCUGCGAAUUCUGCUGU [A42U A51G] | 0.933
GGGGGCCACAGCAGAAGCGUUCACGUCGCGGCCCCUGUCAGUUUCUGGUGAAUCUGCGAAUUCUGCUGG [A42U U69G] | 1.01
GGGGGCCACAGCAGAAGCGUUCACGUCGCGGCCCCUGUCAGUUUCUGGUGAAUCUGCGAAUUCCGCUGU [A42U U64C] | 0.609
GGGGGCCACAGCAGAAGCGUUCACGUCGCGGCCCCUGUCAGACUCUGGUGAAUAUGCGAAUUCUGCUGU [U43C C54A] | 0.734
GGGGGCCACAGCAGAAGCGUUCACGUCGCGGCCCCUGUCAGAAUCUGGUGAAUCGGCGAAUUCUGCUGU [U43A U55G] | 0.283
GGGGGCCACAGCAGAAGCGUUCACGUCGCGGCCCCUGUCAGAAUCUGGUGAAUCCGCGAAUUCUGCUGU [U43A U55C] | 0.289
GGGGGCCACAGCAGAAGCGUUCACGUCGCGGCCCCUGUCAGAAUCUGGUGAAUCUGCGAAUUUUGCUGU [U43A C63U] | 0.86
GGGGGCCACAGCAGAAGCGUUCACGUCGCGGCCCCUGUCAGUUUCUGGUGAAUCUGCGUAUUCUGCUGU [A42U A59U] | 0.677
GGGGGCCACAGCAGAAGCGUUCACGUCGCGGCCCCUGUCAGUUUCUGGUGAAUCUGCGCAUUCUGCUGU [A42U A59C] | 0.546
GGGGGCCACAGCAGAAGCGUUCACGUCGCGGCCCCUGUCAGAAUCUGGUGAAUCUGCGAAUUCUGGUGU [U43A C66G] | 0.572
GGGGGCCACAGCAGAAGCGUUCACGUCGCGGCCCCUGUCAGAAUCUGGUGAAUCUGCGUAUUCUGCUGU [U43A A59U] | 0.579
GGGGGCCACAGCAGAAGCGUUCACGUCGCGGCCCCUGUCAGAAUCUGGUGAAUCUGCGCAUUCUGCUGU [U43A A59C] | 0.573
GGGGGCCACAGCAGAAGCGUUCACGUCGCGGCCCCUGUCAGAAUCUGGUGAAUCUGCGGAUUCUGCUGU [U43A A59G] | 0.782
GGGGGCCACAGCAGAAGCGUUCACGUCGCGGCCCCUGUCAGAAUCUGGUGAAUUUGCGAAUUCUGCUGU [U43A C54U] | 0.771
GGGGGCCACAGCAGAAGCGUUCACGUCGCGGCCCCUGUCAGUUUCUGGUGAAUCCGCGAAUUCUGCUGU [A42U U55C] | 0.522
GGGGGCCACAGCAGAAGCGUUCACGUCGCGGCCCCUGUCAGAAUCUGGUGAACCUGCGAAUUCUGCUGU [U43A U53C] | 0.795
GGGGGCCACAGCAGAAGCGUUCACGUCGCGGCCCCUGUCAGAAUCUGGUGAAACUGCGAAUUCUGCUGU [U43A U53A] | 0.946
GGGGGCCACAGCAGAAGCGUUCACGUCGCGGCCCCUGUCAGACUCUGGUGGAUCUGCGAAUUCUGCUGU [U43C A51G] | 0.964
GGGGGCCACAGCAGAAGCGUUCACGUCGCGGCCCCUGUCAGACUCUGGUGUAUCUGCGAAUUCUGCUGU [U43C A51U] | 0.944
GGGGGCCACAGCAGAAGCGUUCACGUCGCGGCCCCUGUCAGAAUCUGGUGAAUCUGCGACUUCUGCUGU [U43A A60C] | 0.281
GGGGGCCACAGCAGAAGCGUUCACGUCGCGGCCCCUGUCAGUUUCUGGUGAAUCUGCGAACUCUGCUGU [A42U U61C] | 0.435

Variant | self-cleavage
GGGGGCCACAGCAGAAGCGUUCACGUCGCGGCCCCUGUCAGAAUCUGGUGAAUCUGCGAAAUCUGCUGU [U43A U61A] | 0.651
GGGGGCCACAGCAGAAGCGUUCACGUCGCGGCCCCUGUCAGAAUCUGGUGAAUCUGCGAAGUCUGCUGU [U43A U61G] | 0.485
GGGGGCCACAGCAGAAGCGUUCACGUCGCGGCCCCUGUCAGAAUCUGGUGAAUCUGCCAAUUCUGCUGU [U43A G58C] | 0.901
GGGGGCCACAGCAGAAGCGUUCACGUCGCGGCCCCUGUCAGAAUCUGGUGAAUCUGGGAAUUCUGCUGU [U43A C57G] | 0.357
GGGGGCCACAGCAGAAGCGUUCACGUCGCGGCCCCUGUCAGUUUCUAGUGAAUCUGCGAAUUCUGCUGU [A42U G47A] | 0.957
GGGGGCCACAGCAGAAGCGUUCACGUCGCGGCCCCUGUCAGGUUCCGGUGAAUCUGCGAAUUCUGCUGU [A42G U46C] | 0.965
GGGGGCCACAGCAGAAGCGUUCACGUCGCGGCCCCUGUCAGAAUCUGGUGAAUCUGCGAAUUCGGCUGU [U43A U64G] | 0.578
GGGGGCCACAGCAGAAGCGUUCACGUCGCGGCCCCUGUCAGUUUGUGGUGAAUCUGCGAAUUCUGCUGU [A42U C45G] | 0.89
GGGGGCCACAGCAGAAGCGUUCACGUCGCGGCCCCUGUCAGUUUAUGGUGAAUCUGCGAAUUCUGCUGU [A42U C45A] | 0.889
GGGGGCCACAGCAGAAGCGUUCACGUCGCGGCCCCUGUCAGUUUUUGGUGAAUCUGCGAAUUCUGCUGU [A42U C45U] | 0.997
GGGGGCCACAGCAGAAGCGUUCACGUCGCGGCCCCUGUCAGUUUCUGGUGAAUCUCCGAAUUCUGCUGU [A42U G56C] | 0.326
GGGGGCCACAGCAGAAGCGUUCACGUCGCGGCCCCUGUCAGACUGUGGUGAAUCUGCGAAUUCUGCUGU [U43C C45G] | 0.964
GGGGGCCACAGCAGAAGCGUUCACGUCGCGGCCCCUGUCAGACUAUGGUGAAUCUGCGAAUUCUGCUGU [U43C C45A] | 0.961
GGGGGCCACAGCAGAAGCGUUCACGUCGCGGCCCCUGUCAGUUUCUGGUAAAUCUGCGAAUUCUGCUGU [A42U G50A] | 0.949
GGGGGCCACAGCAGAAGCGUUCACGUCGCGGCCCCUGUCAGGUUCUGGUGAAUCUGCGAAUGCUGCUGU [A42G U62G] | 0.709
GGGGGCCACAGCAGAAGCGUUCACGUCGCGGCCCCUGUCAGGUUCUGGUGAAUCUGCGAAUACUGCUGU [A42G U62A] | 0.733
GGGGGCCACAGCAGAAGCGUUCACGUCGCGGCCCCUGUCAGUUCCUGGUGAAUCUGCGAAUUCUGCUGU [A42U U44C] | 0.913
GGGGGCCACAGCAGAAGCGUUCACGUCGCGGCCCCUGUCAGUUGCUGGUGAAUCUGCGAAUUCUGCUGU [A42U U44G] | 0.859
GGGGGCCACAGCAGAAGCGUUCACGUCGCGGCCCCUGUCAGUUUCUGGAGAAUCUGCGAAUUCUGCUGU [A42U U49A] | 0.958
GGGGGCCACAGCAGAAGCGUUCACGUCGCGGCCCCUGUCAGGUUCUGGUGAAUCGGCGAAUUCUGCUGU [A42G U55G] | 0.335
GGGGGCCACAGCAGAAGCGUUCACGUCGCGGCCCCUGUCAGUUUCUGGUGAAUCUGCGAAUUCUGCUUU [A42U G68U] | 0.99
GGGGGCCACAGCAGAAGCGUUCACGUCGCGGCCCCUGUCAGUUUCUGGUGAAUCUGCGAAUUCUGCUCU [A42U G68C] | 0.964
GGGGGCCACAGCAGAAGCGUUCACGUCGCGGCCCCUGUCAGAAUCUGGUGAAUCUGCGAAUUCUGCUGC [U43A U69C] | 1.04
GGGGGCCACAGCAGAAGCGUUCACGUCGCGGCCCCUGUCAGAAUCUGGUGAAUCUGCGAAUCCUGCUGU [U43A U62C] | 0.668
GGGGGCCACAGCAGAAGCGUUCACGUCGCGGCCCCUGUCAGAAUCUGGUGAAUCUGCGAAUUCUGCGGU [U43A U67G] | 0.889
GGGGGCCACAGCAGAAGCGUUCACGUCGCGGCCCCUGUCAGUUUCUGGUGAAUCUGCUAAUUCUGCUGU [A42U G58U] | 0.965

— the RNAGym collection of RNA variant scans (doi:10.7554/elife.80360)
